T1: human sodium-dependent phosphate transporter 2B (NaPi2b) (human, UniProt O95436 1-690)
T1 construct: UniProt ID is given as 095436 [sic]; also called hNaPi2b; Hu NaPi2b
T1 sequence: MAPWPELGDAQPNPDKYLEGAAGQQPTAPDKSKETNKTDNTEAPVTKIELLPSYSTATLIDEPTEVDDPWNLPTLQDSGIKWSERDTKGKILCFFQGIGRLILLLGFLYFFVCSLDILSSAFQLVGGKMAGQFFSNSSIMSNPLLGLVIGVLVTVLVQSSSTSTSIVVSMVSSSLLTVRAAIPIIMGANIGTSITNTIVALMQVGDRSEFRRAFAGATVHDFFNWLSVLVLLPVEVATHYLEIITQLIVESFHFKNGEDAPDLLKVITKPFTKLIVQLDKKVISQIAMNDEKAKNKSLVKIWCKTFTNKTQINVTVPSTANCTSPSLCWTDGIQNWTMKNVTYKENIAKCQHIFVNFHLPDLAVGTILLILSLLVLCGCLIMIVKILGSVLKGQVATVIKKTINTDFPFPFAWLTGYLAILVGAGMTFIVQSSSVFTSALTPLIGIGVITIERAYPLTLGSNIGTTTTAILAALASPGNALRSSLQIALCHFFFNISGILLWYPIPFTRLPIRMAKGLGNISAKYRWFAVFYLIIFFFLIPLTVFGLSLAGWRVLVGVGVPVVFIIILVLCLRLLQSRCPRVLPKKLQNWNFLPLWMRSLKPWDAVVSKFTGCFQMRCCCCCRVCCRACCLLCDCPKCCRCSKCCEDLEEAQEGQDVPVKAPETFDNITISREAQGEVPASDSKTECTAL

T2: human sodium-dependent phosphate transporter 2B (NaPi2b) (human, UniProt O95436 1-690)
T2 construct: Endogenous on tumor cell lines (IGROV-1, OVCAR-3, HCC-78, TOV-21G, NCI-H441) or transfected into HEK293-6e cells with pTT5-huNaPi2b (CL_#13432); also called Hu NaPi2b; hNaPi2b
T2 sequence: T1 sequence

T3: cynomolgus monkey NaPi2b (cynomolgus monkey, UniProt O95436 1-690 (human entry))
T3 construct: Transfected into HEK293-6e cells (clone CL_#13433); also called Cy NaPi2b; Cyno NaPi2b
T3 chain: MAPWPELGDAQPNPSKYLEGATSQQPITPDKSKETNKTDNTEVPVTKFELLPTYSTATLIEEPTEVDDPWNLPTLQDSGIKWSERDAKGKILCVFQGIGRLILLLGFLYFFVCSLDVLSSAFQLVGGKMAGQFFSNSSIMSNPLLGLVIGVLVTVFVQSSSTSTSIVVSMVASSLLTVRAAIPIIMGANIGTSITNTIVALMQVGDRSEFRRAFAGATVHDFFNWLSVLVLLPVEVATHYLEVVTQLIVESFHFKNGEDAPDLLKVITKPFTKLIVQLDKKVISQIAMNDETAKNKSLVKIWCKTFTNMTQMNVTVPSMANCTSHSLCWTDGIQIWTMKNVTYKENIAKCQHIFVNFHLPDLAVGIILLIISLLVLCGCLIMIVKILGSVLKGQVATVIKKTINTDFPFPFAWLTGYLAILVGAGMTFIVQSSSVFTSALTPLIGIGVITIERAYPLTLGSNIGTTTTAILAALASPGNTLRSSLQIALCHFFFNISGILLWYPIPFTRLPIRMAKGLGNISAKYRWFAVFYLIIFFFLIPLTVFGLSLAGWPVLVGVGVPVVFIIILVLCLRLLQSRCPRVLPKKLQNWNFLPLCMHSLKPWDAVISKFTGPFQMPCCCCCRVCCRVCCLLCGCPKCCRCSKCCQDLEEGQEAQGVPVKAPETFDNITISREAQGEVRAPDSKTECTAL

T4: mouse NaPi2b (mouse, UniProt Q9DBP0 1-697)
T4 construct: Transfected into HEK293-6e cells (clone CL_#13476); also called Ms NaPi2b
T4 sequence: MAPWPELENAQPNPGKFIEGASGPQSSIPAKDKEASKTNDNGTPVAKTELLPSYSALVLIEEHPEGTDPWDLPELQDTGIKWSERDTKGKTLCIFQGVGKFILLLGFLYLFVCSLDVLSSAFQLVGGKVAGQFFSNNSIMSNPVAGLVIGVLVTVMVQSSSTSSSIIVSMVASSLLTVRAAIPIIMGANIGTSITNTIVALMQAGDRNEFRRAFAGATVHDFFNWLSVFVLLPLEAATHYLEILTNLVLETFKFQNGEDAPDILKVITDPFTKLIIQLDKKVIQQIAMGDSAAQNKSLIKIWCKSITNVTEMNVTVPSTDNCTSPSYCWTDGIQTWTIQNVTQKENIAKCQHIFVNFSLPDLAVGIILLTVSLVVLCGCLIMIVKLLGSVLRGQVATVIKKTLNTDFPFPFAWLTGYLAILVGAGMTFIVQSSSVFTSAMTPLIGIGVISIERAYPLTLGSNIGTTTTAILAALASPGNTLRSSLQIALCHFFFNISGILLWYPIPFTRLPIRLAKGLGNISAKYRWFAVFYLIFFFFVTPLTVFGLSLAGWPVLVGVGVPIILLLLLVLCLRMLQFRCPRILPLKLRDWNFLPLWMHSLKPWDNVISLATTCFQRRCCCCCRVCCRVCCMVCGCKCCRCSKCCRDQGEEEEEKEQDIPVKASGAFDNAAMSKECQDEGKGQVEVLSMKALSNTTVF

B1: v29814 (monovalent format of parental chimeric variant 23855) (antibody, V domains shown)
VH: QAYLQQSGAELVRPGASVKMSCKASGFTFTSYNVHWVKQTPRQGLEWIAAISPGNGDLSYNQRFKDKATLTVDRSSSTAYMQLSGLTSEDSAVYFCARGRTGMGAVDYWGQGTSVTVSS
VL: DVQMTQTASSLSASLGDRVTISCRASQDVYSYLNWYQQKPHGTVKLLIYYTSRLQSGVPSRFTGSGSGTDYSLTISNLEPEDIATYYCQQYNIFPWTFGGGTKLEIK
notes: Monovalent format; VH and VL are those of v23855; also called parental chimeric monovalent antibody variant
B2: v18992 (MX35) (antibody, human IgG1, kappa)
heavy 1: GQVQLVQSGAEVVKPGASVKMSCKASGYTFTGYNIHWVKQAPGQGLEWIGAIYPGNGDTSYKQKFRGRATLTADTSTSTVYMELSSLRSEDSAVYYCARGETARATFAYWGQGTLVTVSSASTKGPSVFPLAPSSKSTSGGTAALGCLVKDYFPEPVTVSWNSGALTSGVHTFPAVLQSSGLYSLSSVVTVPSSSLGTQTYICNVNHKPSNTKVDKKVEPKSCDKTHTCPPCPAPELLGGPSVFLFPPKPKDTLMISRTPEVTCVVVDVSHEDPEVKFNWYVDGVEVHNAKTKPREEQYNSTYRVVSVLTVLHQDWLNGKEYKCKVSNKALPAPIEKTISKAKGQPREPQVYVYPPSRDELTKNQVSLTCLVKGFYPSDIAVEWESNGQPENNYKTTPPVLDSDGSFALVSKLTVDKSRWQQGNVFSCSVMHEALHNHYTQKSLSLSPG
heavy 2: not shown
light: GDIQMTQSPSSLSASVGDRVTITCSASQDIGNFLNWYQQKPGKTVKVLIYYTSSLYSGVPSRFSGSGSGTDYTLTISSLQPEDFATYYCQQYSKLPLTFGQGTKLELKRTVAAPSVFIFPPSDEQLKSGTASVVCLLNNFYPREAKVQWKVDNALQSGNSQESVTEQDSKDSTYSLSSTLTLSKADYEKHKVYACEVTHQGLSSPVTKSFNRGEC
notes: Two different heavy chains (heterodimeric Fc)
B3: humanized anti-NaPi2b antibody variant v38591 (antibody, human IgG1, kappa)
heavy: not shown
light: DVQMTQSPSSLSASVGDRVTITCRASQDVYSYLNWYQQKPGKAVKLLIYYTSRLQSGVPSRFSGSGSGTDYTLTISSLQPEDFATYYCQQYNIFPWTFGQGTKLEIKRTVAAPSVFIFPPSDEQLKSGTASVVCLLNNFYPREAKVQWKVDNALQSGNSQESVTEQDSKDSTYSLSSTLTLSKADYEKHKVYACEVTHQGLSSPVTKSFNRGEC
notes: Human IgG1/kappa, full-size antibody; same as v29456 but the heavy chains include a C-terminal lysine; also called v38591 (H1L2); v38591 wild-type Fc
B4: v29452 (H1L3) (antibody, human IgG1, kappa, V domains shown)
VH: QVQLVQSGAEVKKPGASVKVSCKASGFTFTSYNVHWVRQAPGQGLEWMGAISPGNGDLSYAQKFQGRVTMTRDTSTSTVYMELSSLRSEDTAVYYCARGRTGMGAVDYWGQGTLVTVSS
VL: DVQMTQSPSSLSASVGDRVTITCRASQDVYSYLNWYQQKPGKAVKLLIYYTSRLQSGVPSRFSGSGSGTDYTLTISSLQPEDIATYYCQQYNIFPWTFGQGTKLEIKR
notes: Humanized IgG1/kappa
B5: v36124 (monovalent format of humanized antibody variant 29456) (antibody, V domains shown)
VH: B4 VH
VL: DVQMTQSPSSLSASVGDRVTITCRASQDVYSYLNWYQQKPGKAVKLLIYYTSRLQSGVPSRFSGSGSGTDYTLTISSLQPEDFATYYCQQYNIFPWTFGQGTKLEIK
notes: Monovalent format; rest of the construct not described; also called VH1/VL2

Columns and labels:
[1] = molecular target: T1, human sodium-dependent phosphate …; experiment: KinExA, monovalent antibody, IGROV-1 cells (endogenous NaPi2b) as titrant, N-curve analysis
[2] = molecular target: T2, human sodium-dependent phosphate …; experiment: flow cytometry on HEK293-6e cells transfected with human NaPi2b, apparent Kd
[3] = molecular target: T2, human sodium-dependent phosphate …; experiment: flow cytometry on IGROV-1 cells, 24 h at 4 C, anti-human IgG Fc AF647
[4] = molecular target: T2, human sodium-dependent phosphate …; experiment: flow cytometry on OVCAR-3 cells, 24 h at 4 C, anti-human IgG Fc AF647
[5] = molecular target: T2, human sodium-dependent phosphate …; experiment: cell-based or functional assay
[6] = molecular target: T2, human sodium-dependent phosphate …; experiment: flow cytometry on HEK293-6e cells transfected with human NaPi2b, apparent Kd; remark: listed apart in the source
[7] = molecular target: T3, cynomolgus monkey NaPi2b; experiment: flow cytometry on HEK293-6e cells transfected with cynomolgus NaPi2b
[8] = molecular target: T4, mouse NaPi2b; experiment: flow cytometry on HEK293-6e cells transfected with mouse NaPi2b
[9] = molecular target: T2, human sodium-dependent phosphate …; experiment: flow cytometry on HEK293-6e cells transfected with human NaPi2b
[10] = molecular target: T2, human sodium-dependent phosphate …; experiment: as above; remark: listed apart in the source
[11] = molecular target: T3, cynomolgus monkey NaPi2b; experiment: flow cytometry on HEK293-6e cells transfected with cynomolgus NaPi2b, apparent Kd
[12] = molecular target: T4, mouse NaPi2b; experiment: flow cytometry on HEK293-6e cells transfected with mouse NaPi2b, apparent Kd
[13] = molecular target: T1, human sodium-dependent phosphate …; experiment: flow cytometry, IGROV-1 cells (endogenous NaPi2b); parameters: unit not given here
[14] = molecular target: T1, human sodium-dependent phosphate …; experiment: flow cytometry, IGROV-1 cells (endogenous NaPi2b); apparent Kd
[15] = molecular target: T5, KLH (Sigma-Aldrich, H8283); experiment: non-specific ELISA, KLH coated, antibody 100 nM
T5 construct: Coating of the non-specific ELISA

Binder | Kd [1] | Kd [2] | Bmax [3] | Kd [3] | Bmax [4] | Kd [4] | Internalized Fluorescence in OVCAR-3, 15 min, 100 nM [5] | Internalized Fluorescence in OVCAR-3, 4 hr, 100 nM [5] | Internalized Fluorescence in OVCAR-3, 16 hr, 100 nM [5] | Internalized Fluorescence in OVCAR-3, 24 hr, 100 nM [5] | Kd [6] | Bmax [7] | Bmax [8] | Bmax [9] | Bmax [10] | Kd [11] | Kd [12] | Bmax [13] | Kd [14] | NS-ELISA binding score (signal over buffer well) [15]
B1 | 0.15 nM | – | – | – | – | – | – | – | – | – | – | – | – | – | – | – | – | – | – | –
B2 | – | 1.51 nM | 21400 | 1.49 nM | 14500 | 3.03 nM | 6650 | 16100 | 18600 | 28600 | 1.51 nM | 378 | 379 | 548 | 548 | 0.67 nM | 0.35 nM | – | – | –
B3 | – | 1.68 nM | 22200 | 1.67 nM | 15100 | 2.8 nM | 7620 | 16600 | 24300 | 32400 | 1.68 nM | 429 | 385 | 651 | 651 | 0.27 nM | 0.29 nM | – | – | –
B4 | – | – | – | – | – | – | – | – | – | – | – | – | – | – | – | – | – | 47800 | 1.6 nM | 1.34
B5 | 0.283 nM | – | – | – | – | – | – | – | – | – | – | – | – | – | – | – | – | – | – | –
